From patent US20050025740A1

Molecular target: binding site for alpha-melanocyte stimulating hormone on mouse melanoma cells (mouse)
Test: binding assay using mouse melanoma cells (Bagutti 1992); ratio against full-length natural alpha-MSH

Row | Substance | relative binding (Kd of full-length natural hormone divided by Kd of the oxime analog)
1 | control monooxime of the alpha-MSH analog Nle-Asp-His-(D)Phe-Arg-Trp-Lys-amide (aminooxyacetyl peptide oximated with acetaldehyde) | 0.82
2 | dioxime formed between the aminooxyacetyl peptide (AOA-Nle-Asp-His-(D)Phe-Arg-Trp-Lys-amide) and glyoxal (O=CH-CH=O) | 3.33
